Biological target: Anaphase-Promoting Complex/Cyclosome (APC), Xenopus, immunoprecipitated on Cdc27 antibody beads (Xenopus (endogenous in egg extract))
Assay: pull-down

- percent of the deubiquitinated Cdc20 bound to the APC: 47%
Substance: double HA-tagged human Cdc20, wild type (from UniProt Q12834 1-499) (natural protein)

— paper PMC3307893
